Results published in patent US7963935B2, “Microprojection array having a beneficial agent containing coating” (Alza Corporation, priority 2001, dated 2011).
Structures can show the parent of a compound that is named as a salt. Blank lines part the entries; values can stand above or below the molecule they belong to.

How the values were obtained:
[1] = Dry film/coating on titanium foil: inspection and redissolution/rehydration in water; assay type: physicochemical
Description: In order to test the ability of aqueous albumin solutions to form solid coatings on titanium microprojections, a coated microprojection array was prepared in the following manner. […] To aliquots of these solutions, fluorescein, a marker added for subsequent visualization of the dried coating, was added at a final concentration of 1 millimolar. A 1-microliter drop of this solution was spread on titanium foil having an area of about one centimeter square. The solution was allowed to dry at room temperature for about 1 hour.
A coated microprojection array was prepared in the following manner. […] To this suspension, fluorescein, a marker added for subsequent visualization, was added at a final concentration of 1 millimolar. A 1 microliter drop of this suspension was spread on titanium foil having an area of 1 square centimeter and allowed to dry at room temperature for about an hour.
To 50 microliters of this solution, 50 microliters of a 40 percent by weight aqueous solution of lidocaine HCl was added. A control solution containing no albumin was also prepared. 1-microliter drops of these solutions were spread on titanium foil having an area of approximately 1 square centimeter. The solutions were allowed to air dry at room temperature for about 1 hour.

[2] = hGH delivery studies with tip-coated microprojection arrays; plasma hGH by ELISA, compared with subcutaneous injection; assay type: in vivo, hairless guinea pigs; conditions: for Cmax / tmax: plasma hGH
Description: An aqueous solution containing 20 wt % human growth hormone (20 wt % hGH), and 20 wt % sucrose was prepared. […] The tips of the microprojections were coated with this solution by passing the arrays over a rotating drum carrying the hGH/sucrose solution using the method and apparatus disclosed in U.S. Patent Application Ser. No. 60/276,762 filed Mar. 16, 2001. Four successive coatings were performed on each microprojection array at 4° C. The amount of protein coated on the arrays was evaluated by total protein assay. An average of 9.5±0.9 μg of hGH was coated per array. […] On the microprojection itself, the coating was found unevenly distributed. Most of the solid coating appeared to be located in caps centered on the geometric center of the faces of the coated area of the microprojections. […] The maximum measured thickness of the coating was about 4 μm while the average calculated thickness over the entire coated area was only about 1.7 μm. Overall, the coating presented good aerodynamics and good adhesion, consistent with minimum effect on penetration of the microprojections into the skin and minimal removal of the drug from the microprojection during penetration.
Some of the hGH tip-coated arrays were subsequently used for drug delivery studies in hairless guinea pigs. The application of the coated microprojection arrays was done using an impact applicator (total energy=0.4 Joules, delivered in less than 10 milliseconds) using a spring-driven impact applicator or the type disclosed in U.S. Patent Application Ser. No. 60/240,307 filed Oct. 13, 2000. The arrays were left on the skin after application for 5 seconds, 5 minutes, or 1 hour, in groups of three animals. Blood was collected at time intervals for plasma hGH determination by ELISA. […] On average, 5 μg of hGH was delivered in each animal, which accounts for approximately 50% of the coated dose. […] Finally, the 5 minute wearing time group had the smallest CV (30%), which is even smaller than that observed following subcutaneous injection (50%).

release of drug particles from dry albumin coating following rehydration ([1]; CSA suspension in 20 wt% human albumin, dried on titanium foil, particles 1 to 25 micrometers): freed readily following rehydration
Molecule: Cyclosporin A [CSA]

Molecule: human growth hormone [hGH]
hGH delivery versus wearing time ([2]; arrays left on skin 5 seconds, 5 minutes or 1 hour): the same at all wearing times
amount of hGH delivered in each animal (average) ([2]; hGH/sucrose tip-coated microprojection array, impact applicator, hairless guinea pigs, all wearing times): 5 µg
Cmax ([2]; microprojection administration): 13 ng/mL
tmax ([2]; microprojection administration): 30 min
hGH delivered as fraction of the coated dose ([2]; microprojection array, hairless guinea pigs): approximately 50%
fraction of the coated dose delivered into the skin ([2]; microprojection array, assuming bioavailability similar to subcutaneous (65%)): about 80%
bioavailability ([2]; subcutaneous administration): 65%
Cmax ([2]; subcutaneous injection): 5 ng/mL
tmax ([2]; subcutaneous injection): 60 min

Molecule: CCN(CC)CC(=O)Nc1c(C)cccc1C [lidocaine HCl]
nature of dried film (hygroscopicity, suitability for storage) ([1]; control solution without albumin): very hygroscopic film unsuitable for subsequent storage
